Test results published in PMC11621567 (Nature Communications, 2024).
Like-named read-outs stand apart in the source and are kept apart here.

B1: human GPR156 EM (residues 1–346), apo (receptor)
chain: MEPEINCSELCDSFPGQELDRRPLHDLCKTTITSSHHSSKTISSLSPVLLGIVWTFLSCGLLLILFFLAFTIHCRKNRIVKMSSPNLNIVTLLGSCLTYSSAYLFGIQDVLVGSSMETLIQTRLSMLCIGTSLVFGPILGKSWRLYKVFTQRVPDKRVIIKDLQLLGLVAALLMADVILLMTWVLTDPIQCLQILSVSMTVTGKDVSCTSTSTHFCASRYSDVWIALIWGCKGLLLLYGAYLAGLTGHVSSPPVNQSLTIMVGVNLLVLAAGLLFVVTRYLHSWPNLVFGLTSGGIFVCTTTINCFIFIPQLKQWKAFEEENQTIRRMAKYFSTPNKSFHTQYGEE
B2: human GPR156 EM (residues 1–346) in the GPR156–Gi3 complex (receptor)
chain: B1 chain

Columns and labels:
[1] = biological target: the molecule itself; assay: cryo-EM structure
[2] = biological target: the molecule itself; assay: cryo-EM structure; remark: listed apart in the source

Protein | stoichiometry N [1] | stoichiometry N [2]
B1 | 2 | –
B2 | – | 2
